Reference: patent US20220025056A1 (INNATE PHARMA, published 2022)

Assays:
ILT2 mutant 2 = target: T1, ILT2 mutant 2 (human, UniProt Q8NHL6 24-650); test: flow cytometry, ILT2 point mutants
T1 construct: transfected in HEK293T cells; also called M2

[1] = target: T2, human ILT6 (LILRA3) on CHO cells (human, UniProt Q8N6C8 24-434); test: flow cytometry, CHO transfectants
T2 construct: also called CHO ILT6 cell line; human ILT-6 polypeptide
T2 sequence (Q8N6C8 other isoform, or with tags, fused parts or gaps): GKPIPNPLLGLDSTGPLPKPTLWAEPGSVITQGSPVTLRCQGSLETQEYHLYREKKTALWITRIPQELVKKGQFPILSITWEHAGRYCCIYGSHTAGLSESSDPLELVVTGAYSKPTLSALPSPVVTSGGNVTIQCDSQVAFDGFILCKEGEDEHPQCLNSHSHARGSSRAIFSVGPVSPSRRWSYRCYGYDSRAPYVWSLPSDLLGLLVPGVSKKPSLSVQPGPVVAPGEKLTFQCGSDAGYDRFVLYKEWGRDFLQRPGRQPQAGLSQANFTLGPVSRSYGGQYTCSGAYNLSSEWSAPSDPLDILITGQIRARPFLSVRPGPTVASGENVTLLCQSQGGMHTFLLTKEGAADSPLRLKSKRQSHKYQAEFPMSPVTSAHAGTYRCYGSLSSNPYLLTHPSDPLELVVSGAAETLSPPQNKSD

T1 sequence (Q8NHL6 other isoform, or with tags, fused parts or gaps mutant): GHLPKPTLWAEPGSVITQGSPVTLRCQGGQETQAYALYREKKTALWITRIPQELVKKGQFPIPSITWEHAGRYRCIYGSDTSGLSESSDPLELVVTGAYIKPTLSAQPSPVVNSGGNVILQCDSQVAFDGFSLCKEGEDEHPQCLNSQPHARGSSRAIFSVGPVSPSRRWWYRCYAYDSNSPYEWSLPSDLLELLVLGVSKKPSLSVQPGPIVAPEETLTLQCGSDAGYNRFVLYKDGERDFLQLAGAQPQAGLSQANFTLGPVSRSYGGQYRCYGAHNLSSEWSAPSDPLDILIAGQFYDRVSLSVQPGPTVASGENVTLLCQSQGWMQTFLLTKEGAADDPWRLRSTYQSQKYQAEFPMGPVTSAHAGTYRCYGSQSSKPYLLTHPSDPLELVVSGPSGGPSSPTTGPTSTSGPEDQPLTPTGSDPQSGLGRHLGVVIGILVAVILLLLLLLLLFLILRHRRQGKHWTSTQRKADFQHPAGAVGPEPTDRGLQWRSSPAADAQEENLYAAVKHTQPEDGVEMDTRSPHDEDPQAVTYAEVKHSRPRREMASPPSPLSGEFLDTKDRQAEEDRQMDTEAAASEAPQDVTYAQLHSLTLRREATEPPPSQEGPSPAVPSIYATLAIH

B1: 2A8A (antibody, human IgG1, V domains shown)
VH: QVQLQQSGPELVKPGASVKISCKASGYSFTNFYIHWVRQRPGQGLDWIGWIFPGSGETKFNEKFKVKATLTADTSSSTAYMQLNSLTSEDSAVYFCARSWNYDARWGYWGQGTSVTVSS
VL: QIVLTQSPASLAVSLGQRATISCRASESIDSYGISFLHWYQQKPGQPPKLLIYRASNLESGIPARFSGSGSRPDFTLTINPVEADDVATYYCQQSNEDPFTFGSGTKLEIK
ILT2 mutant 2
  binding result: no binding
[1]
  binding result: no binding

B2: 6C6 (antibody, human IgG1, V domains shown)
VH: EVQLQQSGPELVKPGASVKISCKASGYSFTNFYIHWVKQRPGQGLDWIGWIFPGSGETNYNERFKGKATLTSDTSSSTAYMQLSSLTSEDSAVYFCARSWNYDARWGYWGQGTTLTVSS
VL: QIVLTQTPASLAVSLGQRATISCRASESIDSYGISFMHWYQQKPGQPPKLLIYRASNLESGIPARFSGSGSRPDFTLTINPVEADDVATYYCQQSNEDPFTFGSGTKLEIK
ILT2 mutant 2
  binding result: no binding
[1]
  binding result: no binding

B3: 2H12 (antibody, human IgG1, V domains shown)
VH: EVKLQQSGPDLVKPGASVKISCKASGYSFTNFYIHWVKQRPGQGLEWIGWIFPGNGETNYSEKFKGKATLTADTSSSTAYMQFNSLTYEDSAVYFCARTWNYDARWGYWGQGTTLTVSS
VL: DILLTQSPASLAVSLGQRATISCRASDGIDSYGISFMHWYQQKPGQPPTLLIYRASTLESGIPARFSGSGSRTDFTLTINPVEADDVATYYCQQTNEAPFTFGSGTKLELK
ILT2 mutant 2
  binding result: no binding
[1]
  binding result: no binding

B4: 1A10D (antibody, human IgG1, V domains shown)
VH: QVQLKQSGPELVKPGASVKISCKASGYSFTNYYIHWVKQRPGQGLEWIGWIFPGSGETNFNEKFKGKATLTADTSSSTAYMQFSSLTSEDSAVYFCARTWNYDARWGYWGQGTTVTVSS
VL: EIVLTQSPASLAVSLGQRATISCRASESIDSYGISFMHWYQQKPGQPPKLLIYRASNLESGIPARFSGSGSRTDFTLTINPVEADDVATYYCQQSNEDPFTFGSGTKLEIK
ILT2 mutant 2
  binding result: no binding
[1]
  binding result: no binding

B5: 2A9 (antibody, human IgG1, V domains shown)
VH: EVKLQQSGPELVKPGASVKISCKASGYSFTNYYIHWVKQRPGQGLEWIGWIFPGSGETNYNEKFKVKATLSADTSSTTAYMQLSSLTSEDSAVYFCARTWNYDARWGYWGQGTTLTVSS
VL: DVVVTQTPASLAVSLGQRATISCRASESIDSYGISFMHWYQQKPGQPPKLLIYRASNLESGIPARFSGSGSRTDFTLTINPVEADDVATYYCQQSNEDPFTFGSGTKLEIK
ILT2 mutant 2
  binding result: no binding
[1]
  binding result: no binding

B6: 3E7A (antibody, human IgG1, V domains shown)
VH: QVQLKQSGPELVKPGASVKISCKASGYSFTNYYIHWVKQRPGQGLEWIGWIFPGSGETNFNEKFKGKATLTADTSSSTAYMQFSSLTSEDSAVYFCARTWNYDARWGYWGQGTTVTVSS
VL: DILMTQSPASLAVSLGQRATISCRASEGIDSYGISFMHWYQQKPGQPPTLLIYRASNLESGIPARFSGSGSRTDFTLTINPVEADDVATYYCQQTNEDPFTFGSGTKLEIK
ILT2 mutant 2
  binding result: no binding
[1]
  binding result: no binding

B7: 3E7B (antibody, human IgG1, V domains shown)
VH: QVQLKQSGPELVKPGASVKISCKASGYSFTNYYIHWVKQRPGQGLEWIGWIFPGSGETNFNEKFKGKATLTADTSSSTAYMQFSSLTSEDSAVYFCARTWNYDARWGYWGQGTTVTVSS
VL: EIQMTQSPASLAVSLGQRATISCRASEGIDSYGISFMHWYQQKPGQPPTLLIYRASNLVSGIPARFSGSGSRTDFTLTINPVEADDVATYYCQQTNEDPFTFGSGTKLEIK
ILT2 mutant 2
  binding result: no binding
[1]
  binding result: no binding

B8: 2C8 (antibody, human IgG1, V domains shown)
VH: EVQLKQSGPELVKPGASVKISCKASGYSFTNYYIQWVKQRPGQGLEWIGWIFPGNGETNYNEKFKGKATLTADTSSSTAYMQLSSLTSEDSAVYFCARTWNYDARWGYWGQGTSVTVSS
VL: DILLTQSPASLTVSLGQRATISCRANESIDSYGISFMHWYQQKPGQPPKLLIYRASNLDSGIPARFSGSGSRTDFTLTINPVEADDVATYYCQQSNEDPFTFGSGTKLEIK
ILT2 mutant 2
  binding result: no binding
[1]
  binding result: no binding
